Km data for two proteins are collected here from paper PMC5862935, “YcfDRM is a thermophilic oxygen-dependent ribosomal protein uL16 oxygenase” (Extremophiles, 2018).

Substrate in series [1]: O=C(O)CCC(=O)C(=O)O
The series is described as follows: MALDI-MS peptide hydroxylation assay, steady-state kinetics. Format: biochemical, Rhodothermus marinus. To be noted: co-substrates uL16RM peptide fragment and O2, Fe(II), ascorbate, 50 mM HEPES pH 7.5, 37 °C.

Substrate in series [2]: O=C(O)CCC(=O)C(=O)O
The series is described as above. The note with it: co-substrates uL16 peptide fragment and O2; Fe(II), ascorbate; temperature and pH for this row not explicitly stated in main text. Format: biochemical, Escherichia coli.

B1: ycfDRM (Rhodothermus marinus DSM 4252) (protein)
chain: MQLPETILGGLAPEEFLANYWQKRPLLIRQALPGFRSPITPEELAGLACEEGVTARLILEKGGAYPWEVRYGPFEPEDFVALPPTHWTLLVQEVDRLVPEVAALLETVRFVPNWRLDDIMVSYAPEGGTVGAHIDNYDVFLVQAWGRRRWQINHRPVEREELVPGLEVRLLAHFEPDAEWILEPGDVLYLPPRIPHYGVALEDCMTFSIGFRAPDQAELAEAMPRMAAWLDGGRRYADPDLTPADEPGEITPEALDQIQALLRALIDDRERLARWFGCIITEPRRGLPPEPPGRPLSAKQLHRRLQQGATLRRNAIPELAYVRHADGSATLFASGEAYELSPELADVAPLLTGRRPLTAETLRPWLERDDFLELLQTLIHSGILSLIPARKR
notes: pET28a NdeI/SacI, expressed in E. coli BL21(DE3); HisTrap and Superdex 75 purified
In general, Km refers to the substrate concentration at which the rate is half of its maximum. As to B1, the Michaelis constant (Km) in series [1] is 71.1 ± 12.2 µM.

B2: ycfDEC (Escherichia coli K-12) (protein)
chain: MEYQLTLNWPDFLERHWQKRPVVLKRGFNNFIDPISPDELAGLAMESEVDSRLVSHQDGKWQVSHGPFESYDHLGETNWSLLVQAVNHWHEPTAALMRPFRELPDWRIDDLMISFSVPGGGVGPHLDQYDVFIIQGTGRRRWRVGEKLQMKQHCPHPDLLQVDPFEAIIDEELEPGDILYIPPGFPHEGYALENAMNYSVGFRAPNTRELISGFADYVLQRELGGNYYSDPDVPPRAHPADVLPQEMDKLREMMLELINQPEHFKQWFGEFISQSRHELDIAPPEPPYQPDEIYDALKQGEVLVRLGGLRVLRIGDDVYANGEKIDSPHRPALDALASNIALTAENFGDALEDPSFLAMLAALVNSGYWFFEG
notes: purified E. coli YcfD; construct not described in main text
Turning to B2, the Km in series [2] is 8.6 ± 3.4 µM.
